Laboratory results taken from patent publication US20140030278A1.

How the values were obtained:
[1] = target: Recombinant human TNF-alpha (human) (UniProt P01375); test: ELISA of unbound rhTNF-alpha after pre-incubation; preparation 1; printed as 7.948e-009 g/ml; conditions: Fc fusion
[2] = target: Recombinant human TNF-alpha (human) (UniProt P01375); test: ELISA of unbound rhTNF-alpha after pre-incubation; preparation 2; printed as 4.220e-009 g/ml; conditions: Fc fusion

Recombinant human TNF-alpha (human), sequence (P01375 77-233): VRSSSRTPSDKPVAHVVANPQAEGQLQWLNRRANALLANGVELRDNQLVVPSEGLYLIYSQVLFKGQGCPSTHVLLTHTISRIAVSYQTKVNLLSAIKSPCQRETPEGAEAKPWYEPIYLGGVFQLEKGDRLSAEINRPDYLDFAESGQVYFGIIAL

For PEG20-etanercept (5 eq), the IC50 [1] was 7.95 ng/mL and the IC50 [2] was 4.22 ng/mL.
